The record followed here is patent US20190367627A1 (AGENUS, published 2019).

First the molecules themselves.
B1: pab1949 (antibody, human IgG1, kappa, V domains shown)
VH: EVQLVESGGGLVQPGGSLKLSCAASGFTFSGSAMHWVRQASGKGLEWVGRIRSKANSYATAYAASVKGRFTISRDDSKNTAYLQMNSLKTEDTAVYYCTSGIYDSSGYDYWGQGTLVTVSS
VL: not shown
notes: also called pab1949 (IgG1)
B2: pab2049 (antibody, human IgG1, V domains shown)
VH: EVQLVESGGGLVQPGGSLKLSCAASGFTFSGSAMHWVRQASGKGLEWVGRIRSKANSYATAYAASVKGRFTISRDDSKNTAYLQMNSLKTEDTAVYYCTSGIYDSSGYDYWGQGTLVTVSS
VL: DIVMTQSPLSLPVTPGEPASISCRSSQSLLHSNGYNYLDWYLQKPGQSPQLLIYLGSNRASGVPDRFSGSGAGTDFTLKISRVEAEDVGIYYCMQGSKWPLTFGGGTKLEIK
notes: its constant region is not tied to this antibody; also called pab2049 (IgG1)
B3: pab1949 N56Y (antibody, IgG1, V domains shown)
VH: EVQLVESGGGLVQPGGSLKLSCAASGFTFSGSAMHWVRQASGKGLEWVGRIRSKAYSYATAYAASVKGRFTISRDDSKNTAYLQMNSLKTEDTAVYYCTSGIYDSSGYDYWGQGTLVTVSS
VL: not shown
B4: pab1949 D109A (antibody, IgG1, V domains shown)
VH: EVQLVESGGGLVQPGGSLKLSCAASGFTFSGSAMHWVRQASGKGLEWVGRIRSKANSYATAYAASVKGRFTISRDDSKNTAYLQMNSLKTEDTAVYYCTSGIYDSSGYAYWGQGTLVTVSS
VL: not shown
B5: pab1949 D104A (antibody, IgG1, V domains shown)
VH: EVQLVESGGGLVQPGGSLKLSCAASGFTFSGSAMHWVRQASGKGLEWVGRIRSKANSYATAYAASVKGRFTISRDDSKNTAYLQMNSLKTEDTAVYYCTSGIYASSGYDYWGQGTLVTVSS
VL: not shown
B6: pab1949 Y103A (antibody, IgG1, V domains shown)
VH: EVQLVESGGGLVQPGGSLKLSCAASGFTFSGSAMHWVRQASGKGLEWVGRIRSKANSYATAYAASVKGRFTISRDDSKNTAYLQMNSLKTEDTAVYYCTSGIADSSGYDYWGQGTLVTVSS
VL: not shown
B7: pab1949 A96G/L97S (antibody, IgG1, V domains shown)
VH: EVQLVESGGGLVQPGGSLKLSCAASGFTFSGSAMHWVRQASGKGLEWVGRIRSKANSYATAYAASVKGRFTISRDDSKNTAYLQMNSLKTEDTAVYYCTSGIYDSSGYDYWGQGTLVTVSS
VL: not shown
notes: Only variable domains are tied to this antibody
B8: pab1949 T99W (antibody, V domains shown)
VH: EVQLVESGGGLVQPGGSLKLSCAASGFTFSGSAMHWVRQASGKGLEWVGRIRSKANSYATAYAASVKGRFTISRDDSKNTAYLQMNSLKTEDTAVYYCTSGIYDSSGYDYWGQGTLVTVSS
VL: not shown
notes: as for B7
B9: pab1949 Y108A (antibody, IgG1, V domains shown)
VH: EVQLVESGGGLVQPGGSLKLSCAASGFTFSGSAMHWVRQASGKGLEWVGRIRSKANSYATAYAASVKGRFTISRDDSKNTAYLQMNSLKTEDTAVYYCTSGIYDSSGADYWGQGTLVTVSS
VL: not shown
B10: pab1949 Q98K (antibody, V domains shown)
VH: EVQLVESGGGLVQPGGSLKLSCAASGFTFSGSAMHWVRQASGKGLEWVGRIRSKANSYATAYAASVKGRFTISRDDSKNTAYLQMNSLKTEDTAVYYCTSGIYDSSGYDYWGQGTLVTVSS
VL: not shown
notes: as for B7

The assay addresses T1, human OX40 (human, UniProt P43489 29-277).
T1 construct: Recombinantly expressed on transduced Jurkat cells; also called OX40 receptor; huOX40
T1 sequence: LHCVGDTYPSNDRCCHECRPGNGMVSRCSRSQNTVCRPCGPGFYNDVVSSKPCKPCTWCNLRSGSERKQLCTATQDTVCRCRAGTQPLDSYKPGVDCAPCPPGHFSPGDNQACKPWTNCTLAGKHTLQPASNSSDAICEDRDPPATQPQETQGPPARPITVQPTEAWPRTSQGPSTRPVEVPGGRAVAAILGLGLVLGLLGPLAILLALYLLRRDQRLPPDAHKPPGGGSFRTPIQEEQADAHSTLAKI
Put plainly: flow cytometry on Jurkat cells expressing human OX40. An excerpt:
FIGS. 1A, 1B, 1C, 1D, 1E, IF, 1G, 1H, 1I, and 1J are a set of flow cytometry plots showing the binding of anti-OX40 antibodies or an isotype control antibody to Jurkat cells expressing human OX40. The anti-OX40 antibodies tested include pab1949, pab2049, heavy chain variants of pab1949 (pab1949 N56Y, pab1949 Y103A, pab1949 D104A, pab1949 Y108A, and pab1949 D109A), and light chain variants of pab1949 (pab1949 A96G/L97S, pab1949 Q98K, and pab1949 T99W). All the anti-OX40 antibodies tested are IgG₁ antibodies. MFI values are plotted over a range of antibody concentrations.
The binding characteristics of the anti-OX40 antibodies to cells expressing human OX40 were analyzed by flow cytometry. Briefly, Jurkat cells were transduced to recombinantly express human OX40. Stable clones were generated via single-cell sorting (FACS ARIA Fusion). OX40 expression was verified by flow cytometry using positive control antibodies. For binding analysis, OX40-expressing Jurkat cells were incubated with anti-OX40 antibodies (12-point dose titration, 10 μg/ml to 0.00005 μg/ml) for 30 minutes at 4° C. The samples were washed twice and then incubated with FITC-conjugated mouse anti-human kappa detection antibody (Life Technologies, Catalog number: HP6062) for 30 minutes at 4° C. The samples were then washed twice and analyzed using the LSRFortessa flow cytometer (BD Biosciences). The flow cytometry plots were analyzed using a combination of FACS DIVA and WEHI Weasel software.
On the technique in general: In flow cytometry, cells or beads pass a laser one at a time.
In the case of B1, the binding result is “binds”.
Under B2 stands “binds”; under B3, “binds”; under B4, “binds”.
Take B5: the binding result is listed as “binds”.
For B6, the binding result was “binds”.
In the case of B7 it was “binds”.
Take B8: the binding result is “binds”.
Take B9: the binding result is listed as “binds”.
Take B10: the binding result is recorded as “binds”.
